According to US20240352121A1, “LAIR-1 AGONISTIC ANTIBODIES AND METHODS OF USE THEREOF” (NEXTCURE, INC., priority 2023, published 2024):

What was measured:
[1] = tested on: healthy human primary immune cells; assay: Effect on healthy human immune cells in mice reconstituted with human CD34 cells; assay type: in vivo, NSG-SGM3 mice
Experimental: NSG-SGM3 mice were purchased from Jackson Laboratory. Mice were engrafted with CD34+ cord blood cells donor #2523. Mice treated weekly beginning 18 weeks after engraftment with anti-human LAIR-1 mAb clone 11B3 in human G1 or G4P format, or control at 100 μg/mouse (5 mg/kg) for 4 weeks. Bleed at weeks 2 (1 day prior to 2nd dose) and 4 (one day prior to 4th dose) for circulating immune cells. Mice were sacrificed 1 week after final dose for analysis of spleen, LN and bone marrow. FIGS. 35A-35B show total body weight and survival of NSG-SGM3 mice reconstituted with human CD34+ cord blood cells and treated 11B3 antibodies. FIGS. 35C-35G show time-course follow-up of the changes in the immune cell numbers in the blood collected from NSG-SGM3 reconstituted with human CD34+ cord blood cells. FIGS. 35H-35I show Analysis of immune cell numbers in the spleen and bone marrow collected from NSG-SGM3 reconstituted with human CD34+ cord blood cells.
For assessment of mAb impacts on normal human immune cells, NSG-SGM3-CD34^+ fully engrafted humanized mice (>25% human CD45+ leukocytes in circulation) were purchased from Jackson Laboratory (stock #2523, Bar Harbor, ME). […] Absolute numbers of cell subpopulations were calculated, as well as percentages of each population subset as a percentage of total CD45^+ cells and total leukocyte gate.

AML patient cells = assay: Ex vivo depleting assay, AML patient blood leukocytes; assay type: cell-based, human
Experimental: Whole blood from AML-diagnosed donors was RBC-depleted using StemCell RBC depletion kit following the manufacturer's instructions. Leukocytes were re-suspended in complete RPMI media containing 3 μg/mL of soluble mAb, then plated in 96-well round-bottom plates for 48 hours at 37° C. Cell death was analyzed by AnnexinV and Fixable Live-Dead staining following the manufacturer's instructions, quantified by flow cytometry. RBC depletion StemCell Ref #18170. Isotype=FC-G1 BioXcell Ref #BE0096. Live-Dead Stain Invitrogen Cat #L34966. AnnexinV-AF647 Biolegend Cat #640943.
Fresh whole blood was RBC-depleted using the EasySep™ RBC Depletion Reagent (StemCell, Vancouver, BC) following the manufacturer's protocol. Alternatively, frozen PBMCs were thawed in pre-warmed cRPMI media. Cell number was determined by VI-Cell XR cell counter. 2e5 cells per well were plated into 96-well plates lacking or containing 50 μg/mL pre-coated human Collagen I (StemCell, Vancouver, BC) in 200 μL of cRPMI containing 10 μg/mL of soluble LAIR-1 mAb or isotype control antibody (NP782 (NextCure, Beltsville, MD) or InVivoMAb recombinant human IgG1 Fc (BioXcell, Lebanon, NH)). Plates were centrifuged at 100×g for 2 minutes, then incubated for 20 hours at 37° C. in a TC incubator. At the end of incubation period, plates were centrifuged at 500×g for 4 min. […]

[2] = tested on: blood leukocytes from healthy (non-AML) donors; assay: Ex vivo depleting assay, healthy donor blood leukocytes; assay type: cell-based, human; details: even in the presence of collagen ECM
Experimental: Fresh whole blood was RBC-depleted using the EasySep™ RBC Depletion Reagent (StemCell, Vancouver, BC) following the manufacturer's protocol. Alternatively, frozen PBMCs were thawed in pre-warmed cRPMI media. Cell number was determined by VI-Cell XR cell counter. 2e5 cells per well were plated into 96-well plates lacking or containing 50 μg/mL pre-coated human Collagen I (StemCell, Vancouver, BC) in 200 μL of cRPMI containing 10 μg/mL of soluble LAIR-1 mAb or isotype control antibody (NP782 (NextCure, Beltsville, MD) or InVivoMAb recombinant human IgG1 Fc (BioXcell, Lebanon, NH)). Plates were centrifuged at 100×g for 2 minutes, then incubated for 20 hours at 37° C. in a TC incubator. At the end of incubation period, plates were centrifuged at 500×g for 4 min. Cells were resuspended and then transferred to a 96-well round-bottom plate for cell staining and flow cytometry as described above.

[3] = tested on: healthy T cells or NK cells; assay: Ex vivo killing of T cells or NK cells of a VEN/AZA-treated AML patient; assay type: cell-based, human; details: same patient sample
Experimental: Ex vivo killing of VEN/AZA-treated AML patient leukemic cells (FIG. 7A) or T cells or NK cells (FIG. 7B). Values normalized to vehicle control. Lines represent linear regression of NC525 concentration versus normalized cell killing. […] FIGS. 7D and 7E show in vivo leukemic growth as measured by whole-body luminescence of MV4-11-luciferase cells (FIG. 7D) or survival (FIG. 7E) of CDX mice treated with 10 mg/kg isotype control (gray) or NC525 (red) or 100 mg/kg VEN (pink) or 0.5 mg/kg AZA (blue) or combination therapy (green or yellow, respectively). BLoD, below limit of detection. n=9 mice per group. P values determined by 2-way ANOVA or log-rank (Mantel-Cox) test, respectively. FIGS. 7F and 7G show leukemic growth in the blood (FIG. 7F) and in the spleen and BM (FIG. 7G) at week 8 after transplant of AML PDX mice treated with vehicle (gray), VEN/AZA (blue), NC525 (red), or VEN/AZA plus NC525 (green). n=5-10 mice per group. AML cells in spleen and BM compared from 4-5 mice per group. Data are shown as the mean±SEM. P values determined by 2-way ANOVA or 1-way ANOVA with multiple comparisons.

B1: LAIR-1 mAb: humanized agonist anti-LAIR-1 mAb, IgG1 backbone; h11B3 VL-2 (SEQ ID NO: 16), h11B3 VH-3 (SEQ ID NO: 27) (antibody, V domains shown)
VH: EVQLVESGGGLVQPGGSLKLSCAASGFTFNTNAMYWVRQAPGKGLEWVGRIRSKSSNYATYYAASVKGRFTISRDDSKNTLYLQMNSLKTEDTAVYYCVRGGSGFFAYWGQGTLVTVSS
VL: DIQMTQSPSSLSASLGDRVTITCKASEDIYIRLAWYQQKPGKAPRLLISTATSLETGVPSRFSGSGSGTDYTFTISSLQPEDIATYYCQQYWSTPYTFGGGTRLEIK
modifications: IgG1 constant regions; Synthetic: h11B3 VH-3; Synthetic: h11B3 VL-2
In the case of B1, the “depletion, inhibition, or expansion of healthy human primary immune cells” value ([1]; 100 μg/mouse (5 mg/kg) weekly for 4 weeks) is reported as “no depletion, inhibition, or expansion”, the “effects on healthy immune cells in the spleen or the bone-marrow” value ([1]; NSG mice reconstituted with healthy human CD34 stem cells) is reported as “minimal effects” and the AML cell death (AML patient cells; 3 μg/mL soluble mAb, 48 hours) is reported as “induces AML cell death”. The “cell death of total AML patient cells or CD45Low SSCLow blasts” value (AML patient cells; 10 μg/mL, plate-coated collagen) was “significant cell death”, the “depletion of blood leukocytes” value [2] was “did not deplete” and the “impact on healthy T cells or NK cells” value [3] was “no impact”.
